According to EP1506972A1 (Genentech Inc., dated 2005):

Target: IGF-I G22A (G1S-A70V background) displayed on phage (human; bacteriophage M13)
Assay: competitive phage ELISA, soluble IGFBP-1 vs coated IGFBP-1

B1: human IGFBP-1 (other, UniProt P08833 26-259, looked up)
chain: APWQCAPCSAEKLALCPPVSASCSEVTRSAGCGCCPMCALPLGAACGVATARCARGLSCRALPGEQQPLHALTRGQGACVQESDASAPHAAEAGSPESPESTEITEEELLDNFHLMAPSEEDHSILWDAISTYDGSKALHVTNIKKWKEPCRIELYRVVESLAKAQETSGEEISKFYLPNCNKNGFYHSRQCETSMDGEAGLCWCVYPWNGKRIPGSPEIRGDPNCQIYFNVQN
notes: Secreted recombinant protein
With B1 the IC50 was 15.9 nM and the relative IC50 (IC50mut/IC50 G1S-A70V) was 1.9 fold.
